Experimental data taken from paper PMC10786891, “Massively parallel profiling of RNA-targeting CRISPR-Cas13d”.

T1: EsCas13d, nuclease-dead (Eubacterium siraeum, UniProt B0MS50, R295A;H300A;R849A;H854A)
T1 sequence: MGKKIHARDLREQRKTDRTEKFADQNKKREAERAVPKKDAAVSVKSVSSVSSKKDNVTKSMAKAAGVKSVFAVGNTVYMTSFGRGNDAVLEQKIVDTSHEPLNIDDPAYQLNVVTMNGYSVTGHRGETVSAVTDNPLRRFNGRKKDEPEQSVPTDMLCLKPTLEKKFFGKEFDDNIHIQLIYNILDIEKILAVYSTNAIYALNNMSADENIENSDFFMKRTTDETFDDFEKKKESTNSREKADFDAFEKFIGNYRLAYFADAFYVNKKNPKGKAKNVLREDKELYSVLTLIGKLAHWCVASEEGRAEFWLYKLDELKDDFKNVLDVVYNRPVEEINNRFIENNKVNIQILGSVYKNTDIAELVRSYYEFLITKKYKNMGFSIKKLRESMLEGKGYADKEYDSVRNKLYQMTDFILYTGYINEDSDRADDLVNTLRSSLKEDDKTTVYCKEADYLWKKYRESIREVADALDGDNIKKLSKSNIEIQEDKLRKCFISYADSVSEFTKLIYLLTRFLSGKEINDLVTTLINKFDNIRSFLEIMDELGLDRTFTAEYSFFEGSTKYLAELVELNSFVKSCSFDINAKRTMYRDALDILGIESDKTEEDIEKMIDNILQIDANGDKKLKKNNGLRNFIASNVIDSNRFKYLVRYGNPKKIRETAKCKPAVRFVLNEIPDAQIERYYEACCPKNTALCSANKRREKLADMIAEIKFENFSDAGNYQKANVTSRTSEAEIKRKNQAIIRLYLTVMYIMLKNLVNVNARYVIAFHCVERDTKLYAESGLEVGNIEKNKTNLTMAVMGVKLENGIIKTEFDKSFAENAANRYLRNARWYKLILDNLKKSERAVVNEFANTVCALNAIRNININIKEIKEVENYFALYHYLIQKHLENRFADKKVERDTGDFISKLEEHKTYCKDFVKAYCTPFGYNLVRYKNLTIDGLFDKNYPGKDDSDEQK

B1: target 1 insU 3' of 13,insG 3' of 2 (mixed)
RNA 1: CACCCGUGCAAAAAUGCAGGGGUCUAAAACUGAGCGGAUAACCUCUCUAUGG
RNA 2: GGGAAUGGAUCCACAUCUACGAAUUCGUACCAUAGAGAGUGUUAUCCGCUCGACCGAGAUCGGAAGAGCACACGU
B2: target 1 insU 3' of 9,insA 3' of 4 (mixed)
RNA 1: CACCCGUGCAAAAAUGCAGGGGUCUAAAACUGAGCGGAUAACCUCUCUAUGG
RNA 2: GGGAAUGGAUCCACAUCUACGAAUUCGUACCAUAGAGAGGUUAUUCCGCAUCACCGAGAUCGGAAGAGCACACGU
B3: target 1 insA 3' of 12,insG 3' of 4 (mixed)
RNA 1: CACCCGUGCAAAAAUGCAGGGGUCUAAAACUGAGCGGAUAACCUCUCUAUGG
RNA 2: GGGAAUGGAUCCACAUCUACGAAUUCGUACCAUAGAGAGGAUUAUCCGCGUCACCGAGAUCGGAAGAGCACACGU
B4: target 1 U3A,G5A (mixed)
RNA 1: CACCCGUGCAAAAAUGCAGGGGUCUAAAACUGAGCGGAUAACCUCUCUAUGG
RNA 2: GGGAAUGGAUCCACAUCUACGAAUUCGUACCAUAGAGAGGUUAUCCACACACCGAGAUCGGAAGAGCACACGU
B5: target 1 C2G,G17U (mixed)
RNA 1: CACCCGUGCAAAAAUGCAGGGGUCUAAAACUGAGCGGAUAACCUCUCUAUGG
RNA 2: GGGAAUGGAUCCACAUCUACGAAUUCGUACCAUAUAGAGGUUAUCCGCUGACCGAGAUCGGAAGAGCACACGU
B6: target 1 insC 3' of 17,insA 3' of 4 (mixed)
RNA 1: CACCCGUGCAAAAAUGCAGGGGUCUAAAACUGAGCGGAUAACCUCUCUAUGG
RNA 2: GGGAAUGGAUCCACAUCUACGAAUUCGUACCAUAGCAGAGGUUAUCCGCAUCACCGAGAUCGGAAGAGCACACGU
B7: target 1 insA 3' of 8,insG 3' of 3 (mixed)
RNA 1: CACCCGUGCAAAAAUGCAGGGGUCUAAAACUGAGCGGAUAACCUCUCUAUGG
RNA 2: GGGAAUGGAUCCACAUCUACGAAUUCGUACCAUAGAGAGGUUAUACCGCUGCACCGAGAUCGGAAGAGCACACGU
B8: target 1 insG 3' of 6,insU 3' of 2 (mixed)
RNA 1: CACCCGUGCAAAAAUGCAGGGGUCUAAAACUGAGCGGAUAACCUCUCUAUGG
RNA 2: GGGAAUGGAUCCACAUCUACGAAUUCGUACCAUAGAGAGGUUAUCCGGCUCUACCGAGAUCGGAAGAGCACACGU
B9: target 1 C2A,U19C (mixed)
RNA 1: CACCCGUGCAAAAAUGCAGGGGUCUAAAACUGAGCGGAUAACCUCUCUAUGG
RNA 2: GGGAAUGGAUCCACAUCUACGAAUUCGUACCACAGAGAGGUUAUCCGCUAACCGAGAUCGGAAGAGCACACGU
B10: target 1 C2U,G15A (mixed)
RNA 1: CACCCGUGCAAAAAUGCAGGGGUCUAAAACUGAGCGGAUAACCUCUCUAUGG
RNA 2: GGGAAUGGAUCCACAUCUACGAAUUCGUACCAUAGAAAGGUUAUCCGCUUACCGAGAUCGGAAGAGCACACGU
B11: target 1 insU 3' of 14,insU 3' of 12 (mixed)
RNA 1: CACCCGUGCAAAAAUGCAGGGGUCUAAAACUGAGCGGAUAACCUCUCUAUGG
RNA 2: GGGAAUGGAUCCACAUCUACGAAUUCGUACCAUAGAGAUGGUUUAUCCGCUCACCGAGAUCGGAAGAGCACACGU
B12: target 1 insC 3' of 18,insG 3' of 3 (mixed)
RNA 1: CACCCGUGCAAAAAUGCAGGGGUCUAAAACUGAGCGGAUAACCUCUCUAUGG
RNA 2: GGGAAUGGAUCCACAUCUACGAAUUCGUACCAUACGAGAGGUUAUCCGCUGCACCGAGAUCGGAAGAGCACACGU
B13: target 1 insC 3' of 11,insU 3' of 9 (mixed)
RNA 1: CACCCGUGCAAAAAUGCAGGGGUCUAAAACUGAGCGGAUAACCUCUCUAUGG
RNA 2: GGGAAUGGAUCCACAUCUACGAAUUCGUACCAUAGAGAGGUCUAUUCCGCUCACCGAGAUCGGAAGAGCACACGU
B14: target 1 U8A,C22G (mixed)
RNA 1: CACCCGUGCAAAAAUGCAGGGGUCUAAAACUGAGCGGAUAACCUCUCUAUGG
RNA 2: GGGAAUGGAUCCACAUCUACGAAUUCGUAGCAUAGAGAGGUUAACCGCUCACCGAGAUCGGAAGAGCACACGU
B15: target 1 insC 3' of 13,insU 3' of 13 (mixed)
RNA 1: CACCCGUGCAAAAAUGCAGGGGUCUAAAACUGAGCGGAUAACCUCUCUAUGG
RNA 2: GGGAAUGGAUCCACAUCUACGAAUUCGUACCAUAGAGAGCUGUUAUCCGCUCACCGAGAUCGGAAGAGCACACGU
B16: target 1 insU 3' of 12,insG 3' of 2 (mixed)
RNA 1: CACCCGUGCAAAAAUGCAGGGGUCUAAAACUGAGCGGAUAACCUCUCUAUGG
RNA 2: GGGAAUGGAUCCACAUCUACGAAUUCGUACCAUAGAGAGGUUUAUCCGCUCGACCGAGAUCGGAAGAGCACACGU
B17: target 1 insG 3' of 16,insU 3' of 16 (mixed)
RNA 1: CACCCGUGCAAAAAUGCAGGGGUCUAAAACUGAGCGGAUAACCUCUCUAUGG
RNA 2: GGGAAUGGAUCCACAUCUACGAAUUCGUACCAUAGAGUGAGGUUAUCCGCUCACCGAGAUCGGAAGAGCACACGU
B18: target 1 U10A,C22A (mixed)
RNA 1: CACCCGUGCAAAAAUGCAGGGGUCUAAAACUGAGCGGAUAACCUCUCUAUGG
RNA 2: GGGAAUGGAUCCACAUCUACGAAUUCGUAACAUAGAGAGGUAAUCCGCUCACCGAGAUCGGAAGAGCACACGU
B19: target 1 G5U,G13A (mixed)
RNA 1: CACCCGUGCAAAAAUGCAGGGGUCUAAAACUGAGCGGAUAACCUCUCUAUGG
RNA 2: GGGAAUGGAUCCACAUCUACGAAUUCGUACCAUAGAGAAGUUAUCCUCUCACCGAGAUCGGAAGAGCACACGU
B20: target 1 C2A (mixed)
RNA 1: CACCCGUGCAAAAAUGCAGGGGUCUAAAACUGAGCGGAUAACCUCUCUAUGG
RNA 2: GGGAAUGGAUCCACAUCUACGAAUUCGUACCAUAGAGAGGUUAUCCGCUAACCGAGAUCGGAAGAGCACACGU
B21: target 1 insC 3' of 15,insG 3' of 11 (mixed)
RNA 1: CACCCGUGCAAAAAUGCAGGGGUCUAAAACUGAGCGGAUAACCUCUCUAUGG
RNA 2: GGGAAUGGAUCCACAUCUACGAAUUCGUACCAUAGAGCAGGUGUAUCCGCUCACCGAGAUCGGAAGAGCACACGU
B22: target 1 insA 3' of 10,insG 3' of 4 (mixed)
RNA 1: CACCCGUGCAAAAAUGCAGGGGUCUAAAACUGAGCGGAUAACCUCUCUAUGG
RNA 2: GGGAAUGGAUCCACAUCUACGAAUUCGUACCAUAGAGAGGUUAAUCCGCGUCACCGAGAUCGGAAGAGCACACGU
B23: target 1 G12A,G13U (mixed)
RNA 1: CACCCGUGCAAAAAUGCAGGGGUCUAAAACUGAGCGGAUAACCUCUCUAUGG
RNA 2: GGGAAUGGAUCCACAUCUACGAAUUCGUACCAUAGAGAUAUUAUCCGCUCACCGAGAUCGGAAGAGCACACGU
B24: target 1 A1C,C2A (mixed)
RNA 1: CACCCGUGCAAAAAUGCAGGGGUCUAAAACUGAGCGGAUAACCUCUCUAUGG
RNA 2: GGGAAUGGAUCCACAUCUACGAAUUCGUACCAUAGAGAGGUUAUCCGCUACCCGAGAUCGGAAGAGCACACGU

Target: T1, EsCas13d, nuclease-dead
Experiment: crRNA (strand 1, pre-loaded); Mg2+; 40 mM Tris-HCl pH 7.5, 150 mM NaCl, 6 mM MgCl2, 1 mM DTT, 0.1% Tween-20, 0.2 mg/ml BSA; 25 C; 10 min per concentration, then washed
Conditions: tags: His6-TwinStrep-SUMO cleaved; N-terminal SNAP kept (SNAP-Surface 488); label: 3' end held by stalled T7 RNA polymerase

First: B1
Second: B2
The Kd of the first is 2.6-fold higher: 21 ± 4 nM for the first, 8 ± 1 nM for the second.

Going from B3 to B4, the Kd rises from 16.2 ± 1.1 nM to 53 ± 8 nM (3.3-fold). The first binds more tightly here.

Going from B5 to B6, the Kd rises from 14.5 ± 0.7 nM to 28.6 ± 2.3 nM (2-fold).

Going from B7 to B8, the Kd rises from 10 ± 0.7 nM to 16.4 ± 0.9 nM (1.6-fold). The first binds more tightly here.

Compared with B9, B10 is 1.6-fold lower in Kd: 22.1 ± 1.6 nM for the first, 13.7 ± 0.7 nM for the second. The second binds more tightly here.

B11 and B12 are within error of each other in Kd: 26.6 ± 2.7 nM for the first, 26.8 ± 1.8 nM for the second.

B13 and B14 are within error of each other in Kd: 40 ± 17 nM for the first, 68 ± 13 nM for the second.

B15 and B16 are within 1.5-fold of each other in Kd: 8.3 ± 0.4 nM for the first, 6.9 ± 0.6 nM for the second.

First: B17
Second: B18
The Kd of the first is 3.5-fold higher: 44 ± 8 nM for the first, 12.5 ± 1.2 nM for the second.

B19 and B20 are within 1.5-fold of each other in Kd: 11.5 ± 0.5 nM for the first, 9.3 ± 0.9 nM for the second.

First: B21
Second: B22
The Kd of the first is 6.4-fold higher: 41 ± 6 nM for the first, 6.44 ± 0.26 nM for the second.

Compared with B23, B24 is 2.5-fold higher in Kd: 14.6 ± 1.4 nM for the first, 36 ± 4 nM for the second. The first binds more tightly here.
